Experimental data: PMC9413830

These substances were tested on Lys1 (position 1, -----K-----) (assay: potentiometry). Conditions: No added salt; only the amphiphile counterions and the added NaOH; none (ultrapure water); 4 mM amphiphile, self-assembled; the assembly morphology changes with pH during the titration.

Substance	pKa
C12-K (lysine amphiphile with a C12 alkyl tail) (synthetic)	8.69
C14-K (lysine amphiphile with a C14 alkyl tail) (synthetic)	8.01
C16-K (lysine amphiphile with a C16 alkyl tail; L enantiomer titrated) (synthetic)	7.66
